The results in this text go back to article PMC3632103.

Holding throughout (assay): EMSA
The target in series [1] is T1, D2 helicase WT (His-MBP fusion) (Bacteriophage T5, UniProt Q6QGH9 1-928).
T1 sequence: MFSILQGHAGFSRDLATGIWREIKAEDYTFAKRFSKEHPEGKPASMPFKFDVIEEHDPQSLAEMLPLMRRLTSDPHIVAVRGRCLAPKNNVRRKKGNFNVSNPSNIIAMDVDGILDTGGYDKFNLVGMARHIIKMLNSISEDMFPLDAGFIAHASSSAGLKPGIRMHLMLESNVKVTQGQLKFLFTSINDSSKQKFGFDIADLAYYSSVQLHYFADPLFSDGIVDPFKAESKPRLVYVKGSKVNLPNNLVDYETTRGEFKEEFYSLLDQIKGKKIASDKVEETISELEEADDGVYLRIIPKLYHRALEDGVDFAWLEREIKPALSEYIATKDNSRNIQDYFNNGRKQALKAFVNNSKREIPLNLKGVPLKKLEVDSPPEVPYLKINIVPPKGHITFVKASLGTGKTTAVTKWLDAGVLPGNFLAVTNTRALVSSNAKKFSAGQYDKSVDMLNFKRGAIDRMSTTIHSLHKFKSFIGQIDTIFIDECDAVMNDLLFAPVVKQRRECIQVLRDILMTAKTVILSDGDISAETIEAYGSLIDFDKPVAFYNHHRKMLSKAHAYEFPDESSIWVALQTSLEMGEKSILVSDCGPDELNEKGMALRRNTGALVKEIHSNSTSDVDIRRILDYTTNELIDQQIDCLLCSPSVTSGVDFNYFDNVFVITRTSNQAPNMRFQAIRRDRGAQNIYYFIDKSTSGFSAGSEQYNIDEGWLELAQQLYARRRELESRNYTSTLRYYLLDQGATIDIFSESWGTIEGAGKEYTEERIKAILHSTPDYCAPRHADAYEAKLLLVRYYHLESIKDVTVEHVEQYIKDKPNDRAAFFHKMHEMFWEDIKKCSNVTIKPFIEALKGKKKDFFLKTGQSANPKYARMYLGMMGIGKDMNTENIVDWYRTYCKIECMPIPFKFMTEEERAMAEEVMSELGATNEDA

Series [2] concerns the target T2, D2 helicase K405E (His-MBP fusion) (Bacteriophage T5, UniProt Q6QGH9 1-928, K405E).
T2 sequence: T1 sequence with K405E

Series [3] deals with T1, D2 helicase WT (His-MBP fusion). The source holds these as a separate data set.

Where a chain is given by its changes, count along the chain named. Read-outs that look alike come from different tables or passages of the source.

As to TTTTTTTTTTTTTTTTTTTTTTTTT (ssDNA) [T25], the binding result in series [1] and in series [2] was “binds” in each case. Turning to TTTTTTTTTTTTTTTTTTTTTTTTTTTTTTTTTTT (ssDNA) [T35], the binding result in series [3] is on record as “binds”.

B1: T55 (ssDNA)
DNA: TTTTTTTTTTTTTTTTTTTTTTTTTTTTTTTTTTTTTTTTTTTTTTTTTTTTTTT
For B1, the binding result in series [3] is “binds”.
